From patent publication US20250136687A1 (SHANDONG SIMCERE BIOPHARMACEUTICAL, published 2025)

Experiments:
[1] = target: T1, human CD3 on the cell surface (Jurkat cells, expanded human T cells, Jurkat-Lucia NFAT cells, human PBMC) (human, UniProt P07766 23-207; P04234 22-171; P09693 23-182); experiment: cell-based or functional assay
[2] = target: T1, human CD3 on the cell surface (Jurkat …); experiment: FACS, Jurkat cells, hybridoma screening
Procedure: (§1) Suspension cells Jurkat cells (purchased from Cell bank of Chinese Academy of Sciences) were scale-up cultured in T-175 cell culture flasks to the logarithmic growth phase, the supernatant of the medium was discarded by centrifugation, and the cell pellet was washed 2 times with PBS. After counting the cells in the previous step, the cell pellet was resuspended with [PBS+2% (w/v) FBS] blocking solution to 4×10⁶ cells/ml, and added to a 96-well FACS reaction plate at 50 μl/well, the supernatant was removed by centrifugation, detection antibodies (initial concentration of […], gradient dilution at 1:5) and an IgG negative control were added at 100 μl/well, the cells were uniformly mixed, and incubated on ice for 1 h. The cells were centrifuged and washed 3 times with a PBS buffer. […] The cells were centrifuged and washed 5 times with a PBS buffer, and FACS (FACS Canto II, purchased from BD Company) was used for detection and result analysis. Data analysis was performed by software (CellQuest) to obtain the mean fluorescence intensity (MFI) of the cells. And then software (GraphPad Prism8) was used for analysis, data fitting, and EC50 value calculation.
(§2) The binding of the supernatant of the hybridoma to human CD3ε/δ-His (purchased from Sino Biological, Inc. (China), catalog number: CT038-H2508H) and monkey CD3ε/δ-His (purchased from Acrobiosystems, CDD-C52W4) was detected by ELISA for the screening of the supernatant of the hybridoma (see Example 10.1 below). The binding of the supernatant of the ELISA positive hybridoma clone to Jurkat cells and monkey T cells was detected by flow cytometry, and the activation of Jurkat-Lucia NFAT cells (purchased from InvivoGen, catalog number: jktl-nfat) by the supernatant of the hybridoma was detected by a reporter gene system (see Example 2.1, Example 2.4 and Example 7.1 below for the method).

[3] = target: T2, cynomolgus monkey CD3 on the surface of expanded monkey T cells (cynomolgus monkey, UniProt Q95LI5 22-198; Q95LI8 22-171; Q95LI7 23-181); experiment: FACS, monkey T cells, hybridoma screening
T2 construct: whole, on cells; Endogenous CD3 within the TCR-CD3 complex on T cells expanded from cynomolgus monkey PBMC
Procedure: as §1, §2

[4] = target: T3, human CD3ε/δ-His (human, UniProt P07766 23-126; P04234 22-105); experiment: ELISA, coated antigen, hybridoma screening
T3 construct: Bought recombinant heterodimer with His tag; also called human CD3ε/δ protein
Excerpt: as §2
(§3) To detect the binding activity of the humanized antibodies to CD3 protein, CD3 protein was diluted with PBS to the final concentration of […], then added to a 96-well ELISA plate at 50 μL/well, and the plate was sealed with a plastic film, and incubated overnight at 4° C. On the next day, the plate was washed 2 times with PBS, and a blocking solution [PBS+2% (v/v) BSA] was added for blocking at room temperature for 2 h. The blocking solution was poured off, and the antibody (initial concentration of 100 nM, and gradient dilution at 1:10) or a negative control antibody was added at 50 µl/well. After incubation at 37° C. for 2 h, the plate was washed 3 times with PBS. […] TMB substrate was added at 50 μl/well, and incubated at room temperature for 10 min, and then a stop solution (1.0 N HCl) was added at 50 μl/well. The OD450 nm values were read by an ELISA microplate reader (Multimode Plate Reader, EnSight, purchased from Perkin Elmer).

[5] = target: T4, monkey CD3ε/δ-His (monkey, UniProt Q95LI5 22-117; Q95LI8 22-105); experiment: ELISA, coated antigen, hybridoma screening
T4 construct: Bought recombinant heterodimer with His tag
Excerpt: as §2, §3

T3 sequence (P07766 23-126, stated change not applied, form in doubt, chain 1 of 2): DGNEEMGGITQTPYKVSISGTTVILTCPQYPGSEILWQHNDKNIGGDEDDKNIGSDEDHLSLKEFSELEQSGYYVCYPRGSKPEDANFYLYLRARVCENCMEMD
T3 sequence (P04234 22-105, stated change not applied, form in doubt, chain 2 of 2): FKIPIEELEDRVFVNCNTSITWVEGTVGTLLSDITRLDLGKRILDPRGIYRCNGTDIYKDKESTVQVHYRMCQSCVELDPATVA
T4 sequence (Q95LI5 22-117, stated change not applied, form in doubt, chain 1 of 2): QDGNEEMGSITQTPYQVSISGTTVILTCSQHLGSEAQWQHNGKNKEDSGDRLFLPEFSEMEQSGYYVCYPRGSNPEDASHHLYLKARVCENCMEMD
T4 sequence (Q95LI8 22-105, stated change not applied, form in doubt, chain 2 of 2): as the sequence (P04234 22-105, stated change not applied, form in doubt, chain 2 of 2) above, with I5V, N15K, I20V, S32T, D33N, I34N, T64A, S74N, V83L counted along it
T2 sequence (Q95LI5 22-198, chain 1 of 3): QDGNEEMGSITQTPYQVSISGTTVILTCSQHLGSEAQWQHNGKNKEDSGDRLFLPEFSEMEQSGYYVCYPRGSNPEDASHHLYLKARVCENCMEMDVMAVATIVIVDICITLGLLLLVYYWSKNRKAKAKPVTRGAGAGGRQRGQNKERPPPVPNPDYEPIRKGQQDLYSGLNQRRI
T2 sequence (Q95LI8 22-171, chain 2 of 3): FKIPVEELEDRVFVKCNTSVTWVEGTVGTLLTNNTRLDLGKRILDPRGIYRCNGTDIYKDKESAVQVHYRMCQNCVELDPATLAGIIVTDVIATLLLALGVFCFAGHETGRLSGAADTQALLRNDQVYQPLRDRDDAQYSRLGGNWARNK
T2 sequence (Q95LI7 23-181, chain 3 of 3): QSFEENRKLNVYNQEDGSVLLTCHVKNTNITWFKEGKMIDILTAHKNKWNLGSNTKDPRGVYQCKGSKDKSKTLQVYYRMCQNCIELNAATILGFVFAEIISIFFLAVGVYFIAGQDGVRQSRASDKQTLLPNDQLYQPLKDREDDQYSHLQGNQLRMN
T1 sequence (P07766 23-207, chain 1 of 3): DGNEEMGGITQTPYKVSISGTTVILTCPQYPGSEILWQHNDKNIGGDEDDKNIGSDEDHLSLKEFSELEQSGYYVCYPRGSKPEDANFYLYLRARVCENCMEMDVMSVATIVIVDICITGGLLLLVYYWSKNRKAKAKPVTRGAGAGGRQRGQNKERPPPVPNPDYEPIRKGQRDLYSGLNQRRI
T1 sequence (P04234 22-171, chain 2 of 3): as the sequence (Q95LI8 22-171, chain 2 of 3) above, with V5I, K15N, V20I, T32S, N33D, N34I, A64T, N74S, L83V, R141H counted along it
T1 sequence (P09693 23-182, chain 3 of 3): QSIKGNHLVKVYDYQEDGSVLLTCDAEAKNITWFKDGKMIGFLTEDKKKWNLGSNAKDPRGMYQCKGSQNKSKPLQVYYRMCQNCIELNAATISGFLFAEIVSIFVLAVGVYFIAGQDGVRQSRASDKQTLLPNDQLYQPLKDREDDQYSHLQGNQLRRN

Reporter assay (RLU), Jurkat-Lucia NFAT, supernatant diluted by 4 times [1]	Reporter assay (RLU), Jurkat-Lucia NFAT, supernatant diluted by 20 times [1]	Mean fluorescence intensity [2]	Mean fluorescence intensity [3]	OD450 [4]	OD450 [5]	Binder
16000 RLU	8890 RLU	767 MFI	20800 MFI	2.17 OD450	3.08 OD450	1-22.6 murine hybridoma antibody (supernatant) (antibody, V domains shown, Tested as hybridoma supernatant) VH: QIPLVQSGPELKKPGETVKISCKTSGYTFTSYGMSWVKQAPGKGLKWMGWINTYSGVPTYADDFKGRFVFSLDTSASTAFLQINNLKNEDTATYFCARLKNNPFCWGQGSTLTVFS VL: DVLMTQSPLSLPVRLGDQASISCRSSQLILHSNGNTYLEWYLQKPGQSPKLLIYKVSNRFSGVPDRFSGSGSGTDFTLKISRVEAEDLGVYYCFQGSHFPWTFGGGTKLEIK
27000 RLU	17800 RLU	895 MFI	3100 MFI	2.04 OD450	2.14 OD450	8-18.1 murine hybridoma antibody (supernatant) (antibody, V domains shown, Tested as hybridoma supernatant) VH: QVQLQQSGAELARPGASVKMSCKASGYIFTMNTMHWVKQRPGQGLEWIGYINPYSGYTKYNQIFKDKATLTADKSSSTAYMRLSSLTSEDSAVYYCLRGGEGVWGQGTTLTVSS VL: not shown
27400 RLU	14800 RLU	284 MFI	1650 MFI	1.56 OD450	1.46 OD450	7-35.6 murine hybridoma antibody (supernatant) (antibody, V domains shown, Tested as hybridoma supernatant) VH: EVQLVESGGGLVQPKGSLKLSCAASGFTFNTYAMNWVRQAPGKGLEWVGRIRSKINNYATYYGDSVKDRFTISRDDSQSMFYLQMNNLKTEDTAMYYCVIHENYGSISWFAYWGQGTLVTVSA VL: QAVVTQESTLTTSPGETVTLTCRSSTGAVTTSNYANWVQEKPDHLFTGLIGGTNNRAPGVPARFSGSLIGDKAALTITGAQTEDEAIYFCALWYSNHWVFGGGTKLTVL
18900 RLU	15600 RLU	6910 MFI	15200 MFI	2.15 OD450	1.82 OD450	5-40.21 murine hybridoma antibody (supernatant) (antibody, V domains shown, Tested as hybridoma supernatant) VH: QVQLQQPGSELVRPGASVKLSCKASGYTFTSYWMHWVKQRPGQGLEWIGNTYPGSGSTNYDEKFKSKATLTVDSSSSTAYMQLSSLTSEDSAVYYCTRDRYGVYYFDYWGQGTTLTVSS VL: DIVMSQSPSSLAVSAGEKVTMSCKSSQSLLNSRTRKNYLAWYQQKPGQSPKLLIYWASTRESGVPDRFSGSGSGTDFTLTISSVQAEDLAVYYCTQSYNLRTFGGGTKLEIK
24500 RLU	27800 RLU	8280 MFI	16300 MFI	2.08 OD450	2.09 OD450	5-7.13 murine hybridoma antibody (supernatant) (antibody, V domains shown, Tested as hybridoma supernatant) VH: QVQLQQPGTELVKPGASVKLSCKASGYTFTSYWVHWVKQRPGQGLEWIGNINPSDGVTNYNEKFKSRATLTVDKSSSTAYMQLSSLTSEDSAVYYCTRDAYGQYYFDDWGQGTTLTVSS VL: DIVMSQSPSSLVVSAGEKVTMSCKSSQSLLNSRTRKNYLAWYQQKPGQSPKLLIYWASVRDSGVPDRFTGSGSGTDFTLTISNVQAEDLAVYYCIQSYYLRTFGGGTILEIK
29000 RLU	34100 RLU	7050 MFI	32600 MFI	2.01 OD450	1.74 OD450	6-35.22 murine hybridoma antibody (supernatant) (antibody, V domains shown, Tested as hybridoma supernatant) VH: EVKLVESGGGLVQPGASLSLSCAASGFTFTDYYMSWVRQPPGKALEWLAMSRNKAKGHTIEYSSSVKGRFTISRDNSQSILYLQMNALRAEDSATYYCARDTYESYDGYFDVWGAGTTVIVSS VL: DIVMSQSPSSLAVSAGETVTMSCKSSQSLFNSRSRKNYLAWYQQKPGQTPKLLIYWASIRESGVPDRFTGSGSGTDFTLTISSVQAEDLAVYYCKQSYYLYTFGSGTKLEIK
26200 RLU	21400 RLU	7240 MFI	36200 MFI	2.06 OD450	1.94 OD450	6-44.5 murine hybridoma antibody (supernatant) (antibody, V domains shown, Tested as hybridoma supernatant) VH: EVQLQQSGPELVKPGASVKMSCKASGHTFTSHIMHWVKQKPGQGLEWIGYINPNNDRTEYSEKFKGKATLTSDKSSSTAYMELSSLTSEDSAVYYCAGEAYYSNSLYAMDYWGQGTSVTVSS VL: DIVMSQSPSSLAVSAGEKVTMSCKSSQSLFNSRTRKNYLAWYQQKPGQSPELLIYWASTRESGVPVRFTGSGSGTDFTLTISSVQAEDLAVYYCKQSYYLRTFGGGTKLEVK
